Experiment [1] concerns the target natural HCV acceptors on human liver cancer cells Huh 7.5.1. The experiment in a line: flow cytometry, binding to Huh 7.5.1 cells (FIG. 6), control protein.
For experiment [2] the target is unchanged. The experiment in a line: flow cytometry, binding to Huh 7.5.1 cells (FIG. 6), with the thirteenth-round DNA aptamer library present as competitor.
Experiment [3] has the same target. The experiment in a line: flow cytometry, binding to Huh 7.5.1 cells (FIG. 6), with a single DNA aptamer present as competitor.
Experiment [4] has the same target. As to the kind of experiment: flow cytometry, binding to Huh 7.5.1 cells (FIG. 6), no aptamer.

In experiment [1], protein GST showed a binding rate of 1%.

For the substance GST-E2, the binding rate is 23.2% in experiment [2], 15.4% in experiment [3] and 36.7% in experiment [4].

The values above are taken from US20100184837A1.
